Common to all, as to assay: not read
Substrate in data set [1]: CN1CC=C(c2ccc[nH]2)CC1
Description: (§1) Km against bovine liver Monoamine oxidase B
Substrate in data set [2]: CN1CC=C(c2cccn2C)CC1
Description: as §1
Substrate in data set [3]: CN1CC=C(c2ccncc2)CC1
Description: as §1
Substrate in data set [4]: CN1CC=C(n2ccc3ccccc32)CC1
Description: as §1
Substrate in data set [5]: CN1CC=C(n2cccc2)CC1
Description: as §1
Substrate in data set [6]: CN1CC=C(n2cnc3ccccc32)CC1
Description: as §1
Substrate in data set [7]: CN1CC=C(n2ncc3ccccc32)CC1
Description: as §1
Substrate in data set [8]: CN1CC=C(n2nnc3ccccc32)CC1
Description: as §1

B1: Amine oxidase [flavin-containing] B (Bos taurus) (protein)
chain: MSSKCDVVVVGGGISGMAAAKLLHDSGLNVIVLEARDRVGGRTYTLRNQKVKYVDLGGSYVGPTQNHILRLSKELGLETYKVNEVERLIHHTKGKSYPFRGSFPSVWNPITYLDHNNLWRTMDDMGREIPSDAPWKAPLAEQWDLMTMKELLDKICWTESSKQLAILFVNLCVTAEIHEVSALWFLWYVKQCGGTTRIFSTSNGGQERKFVGGSGQVSERIMDLLGDRVKLERPVIHIDQTGENVLVETLNHELYEAKYVISAVPPVLGMKIHFNPPLPMMRNQLITRVPLGSVIKSIVYYKEPFWRNMDYCGSMIIEGEEAPVAYALDDTKPDGSYPAIIGFILAHKARKLARLTKEERLKKLCDLYAKVLGSQEALHPVHYEEKNWCEEQYSGGCYTSYFPPGIMTQYGRVLRQPVGRIYFAGTETATHWSGYMEGAVEAGERAAREILHAMGKIPEDEIWLPEPESVDVPAKPITTTFLQRHLPSVPGLLKLIGLTTIFSATALGFLAHKRGLLVRI
In general, Km refers to the concentration of substrate that gives half-maximal velocity. The kcat is the number of substrate molecules converted per active site and unit of time at saturation. B1: the Michaelis constant (Km) in the data set “not read [1]” came to 1800 µM; in “not read [2]” it was 200 µM; in “not read [3]”, 2400 µM; in the data set “not read [4]”, 110 µM; in “not read [5]” it was 650 µM; in “not read [6]”, 900 µM. Moreover, the Michaelis constant (Km) in “not read [7]” was found to be 100 µM; in the data set “not read [8]”, 80 µM. For the same protein, the kcat in the data set “not read [1]” was 1.42 s⁻¹; in the data set “not read [2]”, 6 s⁻¹; in “not read [3]”, 0.233 s⁻¹; in the data set “not read [4]”, 6.9 s⁻¹; in “not read [5]”, 4.47 s⁻¹; in “not read [6]” it was 3.33 s⁻¹. In addition, the catalytic constant (kcat) in the data set “not read [7]” came out at 2 s⁻¹; in “not read [8]” it was 0.9 s⁻¹.

The values above are taken from ChEMBL document CHEMBL1132216, “Studies on the monoamine oxidase-B-catalyzed biotransformation of 4-azaaryl-1-methyl-1,2,3,6-tetrahydropyridine derivatives” (J Med Chem, 1999).
